Measured values published in PMC11679068, “Affinity Peptide-Based Circularly Permuted Fluorescent Protein Biosensors for Non-Small Cell Lung Cancer Diagnosis” (Sensors (Basel, Switzerland), 2024).
Peptide text beside a SMILES is read from it.

Legend:
CYFRA 21-1 = test: BLI binding affinity of synthesized peptides to immobilized CYFRA 21-1; settings: Octet RH96, CYFRA 21-1 immobilized on AR2G biosensors by amine coupling, room temperature, association 90 s, dissociation 180 s, KD = kd/ka
Description: The binding affinities of the peptides to their respective markers were assessed using an Octet RH96 instrument (Sartorius AG, Goettingen, Germany) with software version 12.2.1.18. Markers CEA, SCCAg, and CYFRA 21-1 were immobilized on amine reactive second-generation biosensors (AR2G, Sartorius AG) via amine coupling, with ethanolamine used to quench unreacted sites. Peptides were prepared in a range of concentrations. Experiments were conducted at room temperature and involved three phases: baseline (60 s), association (90 s), and dissociation (180 s). Data analysis was performed using Octet Data Analysis software version 11.0 to calculate the equilibrium dissociation constant (KD) as dissociation constant (kd)/association constant (ka).

carcinoembryonic antigen = biological target: T1, carcinoembryonic antigen (UniProt P06731 35-685); test: BLI; Octet RH96; CEA, SCCAg or CYFRA 21-1 immobilised on AR2G biosensors by amine coupling; peptides in a range of concentrations; room temperature; association 90 s, dissociation 180 s; KD as kd/ka; settings: both partners purified
T1 construct: carcinoembryonic antigen (CEA), serum tumor marker; also called CEA; CAE
T1 sequence (looked up): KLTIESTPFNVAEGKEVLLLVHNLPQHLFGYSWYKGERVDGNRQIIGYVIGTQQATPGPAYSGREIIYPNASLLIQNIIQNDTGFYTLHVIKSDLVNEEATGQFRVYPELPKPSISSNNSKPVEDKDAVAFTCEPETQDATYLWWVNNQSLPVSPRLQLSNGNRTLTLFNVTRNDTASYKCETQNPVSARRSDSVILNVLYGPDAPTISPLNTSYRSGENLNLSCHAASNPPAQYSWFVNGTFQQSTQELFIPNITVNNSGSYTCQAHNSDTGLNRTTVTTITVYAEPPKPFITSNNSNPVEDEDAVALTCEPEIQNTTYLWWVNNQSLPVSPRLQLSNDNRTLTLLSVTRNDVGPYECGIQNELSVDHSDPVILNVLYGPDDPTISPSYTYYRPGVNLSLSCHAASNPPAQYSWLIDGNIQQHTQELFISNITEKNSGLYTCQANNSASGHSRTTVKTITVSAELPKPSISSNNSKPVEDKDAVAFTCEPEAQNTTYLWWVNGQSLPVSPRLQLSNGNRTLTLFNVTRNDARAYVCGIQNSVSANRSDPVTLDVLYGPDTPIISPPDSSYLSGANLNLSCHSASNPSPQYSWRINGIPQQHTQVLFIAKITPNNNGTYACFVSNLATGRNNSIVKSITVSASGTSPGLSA

cytokeratin fragment 19 = biological target: T2, cytokeratin fragment 19 (Limits are not printed. The conventional CYFRA 21-1 soluble C-terminal fragment of KRT19 (after caspase-3 cleavage at Asp238) is used; from general knowledge, not from the paper or the candidate featu); test: as above; settings: both partners purified
T2 chain: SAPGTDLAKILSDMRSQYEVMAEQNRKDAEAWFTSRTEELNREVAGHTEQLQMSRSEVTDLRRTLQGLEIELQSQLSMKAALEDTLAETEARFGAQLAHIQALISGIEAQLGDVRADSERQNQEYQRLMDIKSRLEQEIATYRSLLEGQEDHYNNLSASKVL

[1] = biological target: squamous cell carcinoma antigen (UniProt P29508 1-390); test: as above; settings: both partners purified
Chain of squamous cell carcinoma antigen (P29508 whole entry): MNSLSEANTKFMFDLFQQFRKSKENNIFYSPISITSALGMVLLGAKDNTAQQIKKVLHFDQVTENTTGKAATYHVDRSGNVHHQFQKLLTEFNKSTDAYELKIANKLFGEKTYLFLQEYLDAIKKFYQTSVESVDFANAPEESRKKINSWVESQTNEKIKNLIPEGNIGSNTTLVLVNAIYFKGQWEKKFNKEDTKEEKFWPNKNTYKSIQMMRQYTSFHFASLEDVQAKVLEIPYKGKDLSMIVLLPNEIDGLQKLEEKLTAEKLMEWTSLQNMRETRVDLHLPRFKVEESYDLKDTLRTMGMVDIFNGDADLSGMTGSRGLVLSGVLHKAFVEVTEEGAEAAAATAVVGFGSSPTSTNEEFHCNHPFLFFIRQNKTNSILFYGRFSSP

| Molecule | Kd (carcinoembryonic antigen) [nM] | Kd (cytokeratin fragment 19) [nM] | Kd [1] [nM] | further results |
| --- | --- | --- | --- | --- |
| CSCC[C@H](NC(=O)CN)C(=O)N[C@@H](CS)C(=O)N[C@@H](CO)C(=O)N[C@@H](Cc1ccccc1)C(=O)N[C@H](C(=O)N[C@@H](CC(=O)O)C(=O)N[C@H](C(=O)N[C@@H](C)C(=O)N[C@@H](CC(N)=O)C(=O)N[C@@H](CS)C(=O)N1CCC[C@H]1C(=O)O)C(C)C)C(C)C [Peptide Y3] (H-GMCSFVDVANCP-OH) |  |  |  | Kd (CYFRA 21-1): 14 nM |
| WSPSALLPSSVT (dodecapeptide C3 from phage display, synthesized; source: synthetic peptide (Fmoc solid phase, Synpeptide Co., HPLC purified)) [synthetic peptide C3] | 460 |  |  |  |
| GMCSFVDVANCP (dodecapeptide Y3 from phage display, synthesized; source: synthetic peptide (Fmoc solid phase, Synpeptide Co., HPLC purified)) [synthetic peptide Y3] |  | 14 |  |  |
| YGVSALSSYVSC (dodecapeptide C2 from phage display, synthesized; source: synthetic peptide (Fmoc solid phase, Synpeptide Co., HPLC purified)) [synthetic peptide C2] | 870 |  |  |  |
| IQCFSLAPYVGC (dodecapeptide S3 from phage display, synthesized; source: synthetic peptide (Fmoc solid phase, Synpeptide Co., HPLC purified)) [synthetic peptide S3] |  |  | 2900 |  |
| QSYFNACWSCNH (source: synthetic peptide (Fmoc solid phase, Synpeptide Co., HPLC purified)) [synthetic peptide Y10] |  | 1000 |  |  |
| CFAGTPSILMLA (dodecapeptide Y1 from phage display, synthesized; source: synthetic peptide (Fmoc solid phase, Synpeptide Co., HPLC purified)) [synthetic peptide Y1] |  | 83 |  |  |
| AYSRDVVLNMWR (dodecapeptide S2 from phage display, synthesized; source: synthetic peptide (Fmoc solid phase, Synpeptide Co., HPLC purified)) [synthetic peptide S2] |  |  | 6.1 |  |
| HHRLTRSMQLMM (dodecapeptide C4 from phage display, synthesized; source: synthetic peptide (Fmoc solid phase, Synpeptide Co., HPLC purified)) [synthetic peptide C4] | 16 |  |  |  |
| TLSWHQNLRLME (dodecapeptide S1 from phage display, synthesized; source: synthetic peptide (Fmoc solid phase, Synpeptide Co., HPLC purified)) [synthetic peptide S1] |  |  | 28 |  |
